Measurements from publication PMC12239786, “SARS-CoV-2 RNA-binding protein suppresses extracellular miRNA release”.

Assays:
[1] = molecular target: His-Nsp9 (SARS-CoV-2, UniProt P0DTD1 4141-4253); assay: fluorescence polarization; 100 nM RNA; FP: 20 mM HEPES pH 7.0, 150 mM NaCl, 2 mM MgCl2, 10 mM DTT, 1 U/ul RiboLock, 5 min at room temperature; NMR: 20 mM HEPES pH 7.0, 15 mM NaCl, 0.5 mM TCEP, 0.02%; conditions: protein: recombinant; tags: His; chain copies: 2; label: 3' Cy3
[2] = molecular target: NCL (RNA-binding domain on protein array) (human, UniProt P19338 307-647); assay: protein microarray; FP: 20 mM HEPES pH 7.0, 150 mM NaCl, 2 mM MgCl2, 10 mM DTT, 1 U/ul RiboLock, 5 min at room temperature; NMR: 20 mM HEPES pH 7.0, 15 mM NaCl, 0.5 mM TCEP, 0.02%; conditions: protein: recombinant; label: 5' biotin
NCL (RNA-binding domain on protein array), sequence (P19338 307-647): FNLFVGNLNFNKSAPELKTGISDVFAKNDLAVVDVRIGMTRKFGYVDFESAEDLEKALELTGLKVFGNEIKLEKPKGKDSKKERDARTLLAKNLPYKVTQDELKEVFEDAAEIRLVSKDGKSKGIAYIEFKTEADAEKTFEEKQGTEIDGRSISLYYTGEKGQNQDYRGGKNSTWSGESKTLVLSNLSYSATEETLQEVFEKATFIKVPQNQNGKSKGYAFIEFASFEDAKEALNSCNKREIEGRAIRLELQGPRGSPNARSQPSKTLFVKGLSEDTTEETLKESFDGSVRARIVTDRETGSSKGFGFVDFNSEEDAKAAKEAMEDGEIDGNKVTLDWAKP

[3] = molecular target: AUF1 (RNA-binding domain on protein array) (human, UniProt Q14103 97-261); assay: as above; conditions: protein: recombinant; label: 5' biotin
AUF1 (RNA-binding domain on protein array), sequence (Q14103 97-261): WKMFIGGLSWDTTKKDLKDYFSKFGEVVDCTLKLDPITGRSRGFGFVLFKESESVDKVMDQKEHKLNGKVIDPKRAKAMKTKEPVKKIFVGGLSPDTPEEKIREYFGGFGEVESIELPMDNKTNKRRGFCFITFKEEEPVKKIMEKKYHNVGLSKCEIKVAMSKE

With UGAGGUAGUAGGUUGUGUGGUU (ssRNA, 5' phosphate) [let-7b-Cy3] the Kd [1] was ~15 nM.

UGAGGUAGUAGGUUGUGUGGUU (ssRNA) [let-7b-biotin]: binds [2]; binds [3].

CAGUGCAAUGAUGAAAGGGCAU (ssRNA, 5' phosphate) [miR-130b-Cy3] gave a Kd [1] of ~63 nM.

UAGCUUAUCAGACUGAUGUUGA (ssRNA, 5' phosphate) [miR-21-Cy3]: no binding [1].

UGAGGUAGUAGGUUGCCAUUAU (ssRNA, 5' phosphate) [mutant let-7b-Cy3]: no binding [1].
